Results reported in PMC4452343, “Monitoring β-arrestin recruitment via β-lactamase enzyme fragment complementation: purification of peptide E as a low-affinity ligand for mammalian bombesin receptors” (PLoS ONE, 2015).

Tests used:
[1] = target: gastrin-releasing peptide receptor (human, UniProt P30550 1-384); assay: cell-based or functional assay
[2] = target: T1, human bombesin receptor subtype 3 (human, UniProt P32247 1-399); assay: cell-based or functional assay
T1 sequence (looked up): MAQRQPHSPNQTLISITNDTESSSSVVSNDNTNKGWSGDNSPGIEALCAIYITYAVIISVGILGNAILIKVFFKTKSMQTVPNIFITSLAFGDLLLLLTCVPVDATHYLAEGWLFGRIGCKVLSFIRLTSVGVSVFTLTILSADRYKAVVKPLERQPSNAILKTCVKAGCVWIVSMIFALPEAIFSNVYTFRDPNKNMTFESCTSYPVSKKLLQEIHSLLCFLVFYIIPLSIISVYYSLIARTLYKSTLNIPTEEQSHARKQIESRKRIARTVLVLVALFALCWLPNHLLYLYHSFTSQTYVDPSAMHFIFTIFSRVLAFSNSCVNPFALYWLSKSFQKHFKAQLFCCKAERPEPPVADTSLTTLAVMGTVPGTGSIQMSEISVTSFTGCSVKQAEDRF

[3] = target: neuromedin B receptor (human, UniProt P28336 1-390); assay: cell-based or functional assay
[4] = target: T1, human bombesin receptor subtype 3; assay: radioligand binding; competition; 5 μg membrane fraction of CHO-hBRS3 cells with 0.1 nM radioligand and various concentrations of competitor, 2 h at room temperature, 50mM Tris-HCl (pH7.5), 5mM MgCl2; bound ligand separated on a GF/C filter; conditions: one partner purified

Chain of neuromedin B receptor (P28336 whole entry): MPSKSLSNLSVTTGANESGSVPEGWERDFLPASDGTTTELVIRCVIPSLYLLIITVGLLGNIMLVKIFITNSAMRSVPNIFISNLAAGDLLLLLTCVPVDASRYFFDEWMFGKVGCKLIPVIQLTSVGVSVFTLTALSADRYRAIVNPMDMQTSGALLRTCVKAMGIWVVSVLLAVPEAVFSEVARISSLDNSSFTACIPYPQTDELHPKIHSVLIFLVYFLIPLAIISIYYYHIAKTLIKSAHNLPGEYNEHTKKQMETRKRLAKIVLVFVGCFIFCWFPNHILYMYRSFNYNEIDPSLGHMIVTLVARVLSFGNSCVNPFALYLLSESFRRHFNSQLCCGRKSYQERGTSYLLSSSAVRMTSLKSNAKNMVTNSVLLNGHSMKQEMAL
Chain of gastrin-releasing peptide receptor (P30550 whole entry): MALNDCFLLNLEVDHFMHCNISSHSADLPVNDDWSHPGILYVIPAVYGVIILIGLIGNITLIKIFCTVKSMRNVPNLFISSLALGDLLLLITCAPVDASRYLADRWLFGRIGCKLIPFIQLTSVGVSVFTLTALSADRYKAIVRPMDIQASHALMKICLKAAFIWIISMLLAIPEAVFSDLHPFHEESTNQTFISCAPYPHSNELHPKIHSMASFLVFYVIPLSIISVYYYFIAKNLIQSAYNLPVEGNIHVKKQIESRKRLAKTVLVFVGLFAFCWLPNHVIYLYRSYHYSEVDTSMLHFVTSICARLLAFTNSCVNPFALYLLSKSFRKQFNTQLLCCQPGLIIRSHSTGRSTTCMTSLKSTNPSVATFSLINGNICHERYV

B1: peptide E (peptide)
chain: YGGFMRRVGRPEWWMDYQKRYGGFL
notes: peptide E, a partially processed product of the opioid peptide precursor proenkephalin A; 25 residues; also called P2; synthetic peptide E; source: synthetic peptide (chemically synthesized)
- EC50 of NFAT-luciferase reporter activation in CHO cells expressing hGRPR [1]: 3500 nM
- EC50 of NFAT-luciferase reporter activation in CHO cells expressing hBRS3 [2]: 500 nM
- EC50 of NFAT-luciferase reporter activation in CHO cells expressing hNMBR [3]: 1100 nM
- IC50 [4]: 361 nM
